# Test results from patent US20150344570A1 (published 2015).
# T1: FcγRIIa R extracellular domain with C-terminal His tag (human, UniProt P12318 34-217)
# T1 construct: extracellular domain; also called FcgRIIa R; 2aR; not shown: His tag at the C terminus
# T1 sequence (looked up): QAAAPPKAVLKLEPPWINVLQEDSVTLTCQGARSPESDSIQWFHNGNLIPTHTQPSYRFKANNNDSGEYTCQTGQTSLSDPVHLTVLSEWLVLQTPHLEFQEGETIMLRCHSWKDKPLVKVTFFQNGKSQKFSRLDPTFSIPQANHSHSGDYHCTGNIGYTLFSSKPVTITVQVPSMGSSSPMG
# B1: GpH7-B3 variant K326_07I/GpL16-k0 (antibody, human IgG1, kappa)
# heavy: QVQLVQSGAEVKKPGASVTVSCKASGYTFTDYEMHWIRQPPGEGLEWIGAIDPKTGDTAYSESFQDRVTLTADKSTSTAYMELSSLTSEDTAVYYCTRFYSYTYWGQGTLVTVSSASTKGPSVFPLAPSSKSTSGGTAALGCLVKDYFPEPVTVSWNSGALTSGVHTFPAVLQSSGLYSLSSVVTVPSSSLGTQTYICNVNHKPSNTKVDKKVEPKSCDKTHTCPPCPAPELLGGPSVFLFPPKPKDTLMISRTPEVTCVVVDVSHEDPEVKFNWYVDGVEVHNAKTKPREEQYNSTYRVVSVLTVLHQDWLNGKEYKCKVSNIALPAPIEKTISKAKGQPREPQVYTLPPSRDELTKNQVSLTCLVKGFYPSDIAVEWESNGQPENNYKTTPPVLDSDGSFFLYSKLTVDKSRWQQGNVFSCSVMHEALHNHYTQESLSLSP
# light: DIVMTQSPLSLPVTPGEPASISCQASESLVHSNRNTYLHWYLQKPGQSPQLLIYKVSNRFSGVPDRFSGSGSGTDFTLKISRVEAEDVGVYYCSQNTHVPPTFGQGTKVEIERTVAAPSVFIFPPSDEQLKSGTASVVCLLNNFYPREAKVQWKVDNALQSGNSQESVTEQDSKDSTYSLSSTLTLSKADYEKHKVYACEVTHQGLSSPVTKSFNRGEC
# notes: homodimerized: alteration in both H chains; also called Ho Ab K326_07I
# B2: GpH7-A5/GpH7-B3 variant S337_02A/GpL16-k0 (antibody, human IgG1, kappa)
# heavy 1: not shown
# heavy 2: not shown
# light: B1 light
# notes: heterodimerized: alteration in one H chain only; also called He Ab S337_02A
# B3: GpH7-B3 variant P238_04F/GpL16-k0 (antibody, human IgG1, kappa)
# heavy: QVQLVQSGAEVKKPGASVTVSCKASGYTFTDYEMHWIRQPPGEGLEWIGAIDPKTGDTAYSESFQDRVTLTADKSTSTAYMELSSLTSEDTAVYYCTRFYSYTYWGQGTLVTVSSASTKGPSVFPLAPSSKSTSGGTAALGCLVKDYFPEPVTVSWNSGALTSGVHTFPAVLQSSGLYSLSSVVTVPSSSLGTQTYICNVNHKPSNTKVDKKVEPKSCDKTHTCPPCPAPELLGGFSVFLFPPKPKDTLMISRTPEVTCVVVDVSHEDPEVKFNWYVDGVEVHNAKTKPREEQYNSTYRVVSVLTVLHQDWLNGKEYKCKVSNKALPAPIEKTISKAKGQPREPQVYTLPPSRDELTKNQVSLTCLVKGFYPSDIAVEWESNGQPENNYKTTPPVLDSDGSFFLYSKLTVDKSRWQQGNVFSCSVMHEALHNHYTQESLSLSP
# light: B1 light
# notes: homodimerized: alteration in both H chains; also called Ho Ab P238_04F
# B4: GpH7-B3 variant T335_10E/GpL16-k0 (antibody, human IgG1, kappa)
# heavy: not shown
# light: B1 light
# notes: homodimerized: alteration in both H chains; also called Ho Ab T335_10E
# B5: GpH7-B3 variant S267_03V/GpL16-k0 (antibody, human IgG1, kappa)
# heavy: not shown
# light: B1 light
# notes: homodimerized: alteration in both H chains; also called Ho Ab S267_03V
# B6: GpH7-B3 variant S267_19Q/GpL16-k0 (antibody, human IgG1, kappa)
# heavy: not shown
# light: B1 light
# notes: homodimerized: alteration in both H chains; also called Ho Ab S267_19Q
# B7: GpH7-A5/GpH7-B3 variant A330_01G/GpL16-k0 (antibody, human IgG1, kappa)
# heavy 1: not shown
# heavy 2: not shown
# light: B1 light
# notes: heterodimerized: alteration in one H chain only; also called He Ab A330_01G
# B8: GpH7-B3 variant T335_13S/GpL16-k0 (antibody, human IgG1, kappa)
# heavy: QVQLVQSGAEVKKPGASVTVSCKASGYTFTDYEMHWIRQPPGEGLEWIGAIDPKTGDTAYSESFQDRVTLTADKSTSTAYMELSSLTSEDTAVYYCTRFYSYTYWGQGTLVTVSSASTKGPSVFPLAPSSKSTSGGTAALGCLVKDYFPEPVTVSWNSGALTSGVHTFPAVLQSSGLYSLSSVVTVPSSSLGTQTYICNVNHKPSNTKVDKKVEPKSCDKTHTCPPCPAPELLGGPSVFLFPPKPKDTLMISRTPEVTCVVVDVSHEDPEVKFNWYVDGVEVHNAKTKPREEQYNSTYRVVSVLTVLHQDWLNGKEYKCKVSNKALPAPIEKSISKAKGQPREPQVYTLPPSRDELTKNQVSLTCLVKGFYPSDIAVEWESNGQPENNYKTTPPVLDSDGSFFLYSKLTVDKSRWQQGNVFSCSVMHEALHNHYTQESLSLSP
# light: B1 light
# notes: homodimerized: alteration in both H chains; also called Ho Ab T335_13S
# B9: GpH7-B3 variant K334_05P/GpL16-k0 (antibody, human IgG1, kappa)
# heavy: not shown
# light: B1 light
# notes: homodimerized: alteration in both H chains; also called Ho Ab K334_05P
# B10: GpH7-B3 variant P331_16H/GpL16-k0 (antibody, human IgG1, kappa)
# heavy: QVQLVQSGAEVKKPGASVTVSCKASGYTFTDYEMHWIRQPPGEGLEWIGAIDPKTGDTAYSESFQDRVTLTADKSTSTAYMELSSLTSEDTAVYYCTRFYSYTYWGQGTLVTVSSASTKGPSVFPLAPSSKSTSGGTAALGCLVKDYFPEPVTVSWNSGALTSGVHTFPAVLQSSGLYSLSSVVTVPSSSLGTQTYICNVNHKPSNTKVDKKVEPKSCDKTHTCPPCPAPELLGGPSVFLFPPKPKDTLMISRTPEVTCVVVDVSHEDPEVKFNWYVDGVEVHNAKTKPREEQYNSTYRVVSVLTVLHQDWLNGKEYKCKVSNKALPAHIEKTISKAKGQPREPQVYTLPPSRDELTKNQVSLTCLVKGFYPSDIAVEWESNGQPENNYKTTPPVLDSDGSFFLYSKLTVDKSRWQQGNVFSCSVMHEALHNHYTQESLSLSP
# light: B1 light
# notes: homodimerized: alteration in both H chains; also called Ho Ab P331_16H
# B11: GpH7-B3 variant P271_08L/GpL16-k0 (antibody, human IgG1, kappa)
# heavy: not shown
# light: B1 light
# notes: homodimerized: alteration in both H chains; also called Ho Ab P271_08L
# B12: GpH7-B3 variant K334_10E/GpL16-k0 (antibody, human IgG1, kappa)
# heavy: not shown
# light: B1 light
# notes: homodimerized: alteration in both H chains; also called Ho Ab K334_10E
# B13: GpH7-B3 variant S337_07I/GpL16-k0 (antibody, human IgG1, kappa)
# heavy: not shown
# light: B1 light
# notes: homodimerized: alteration in both H chains; also called Ho Ab S337_07I
# B14: GpH7-B3 variant S337_18N/GpL16-k0 (antibody, human IgG1, kappa)
# heavy: not shown
# light: B1 light
# notes: homodimerized: alteration in both H chains; also called Ho Ab S337_18N
# B15: GpH7-B3 variant K326_15Y/GpL16-k0 (antibody, human IgG1, kappa)
# heavy: not shown
# light: B1 light
# notes: homodimerized: alteration in both H chains; also called Ho Ab K326_15Y
# B16: GpH7-B3 variant S337_16H/GpL16-k0 (antibody, human IgG1, kappa)
# heavy: not shown
# light: B1 light
# notes: homodimerized: alteration in both H chains; also called Ho Ab S337_16H
# B17: GpH7-B3 variant P238_03V/GpL16-k0 (antibody, human IgG1, kappa)
# heavy: not shown
# light: B1 light
# notes: homodimerized: alteration in both H chains; also called Ho Ab P238_03V
# B18: GpH7-B3 variant P331_15Y/GpL16-k0 (antibody, human IgG1, kappa)
# heavy: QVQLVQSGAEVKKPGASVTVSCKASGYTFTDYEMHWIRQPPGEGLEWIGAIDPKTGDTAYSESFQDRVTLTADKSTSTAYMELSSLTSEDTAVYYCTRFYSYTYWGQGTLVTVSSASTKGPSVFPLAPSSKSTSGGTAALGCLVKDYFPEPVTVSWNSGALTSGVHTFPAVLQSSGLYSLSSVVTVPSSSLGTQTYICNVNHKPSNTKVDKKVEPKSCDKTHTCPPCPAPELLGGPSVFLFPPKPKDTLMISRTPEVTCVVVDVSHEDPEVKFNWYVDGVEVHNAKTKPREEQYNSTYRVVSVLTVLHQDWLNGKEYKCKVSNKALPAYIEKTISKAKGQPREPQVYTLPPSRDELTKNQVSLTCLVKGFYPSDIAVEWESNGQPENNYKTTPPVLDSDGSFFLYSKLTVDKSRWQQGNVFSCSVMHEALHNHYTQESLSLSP
# light: B1 light
# notes: homodimerized: alteration in both H chains; also called Ho Ab P331_15Y
# B19: GpH7-B3 variant S337_10E/GpL16-k0 (antibody, human IgG1, kappa)
# heavy: not shown
# light: B1 light
# notes: homodimerized: alteration in both H chains; also called Ho Ab S337_10E
# B20: GpH7-B3 variant K334_08L/GpL16-k0 (antibody, human IgG1, kappa)
# heavy: not shown
# light: B1 light
# notes: homodimerized: alteration in both H chains; also called Ho Ab K334_08L
# B21: GpH7-B3 variant P331_02A/GpL16-k0 (antibody, human IgG1, kappa)
# heavy: not shown
# light: B1 light
# notes: homodimerized: alteration in both H chains; also called Ho Ab P331_02A
# B22: GpH7-B3 variant S337_06M/GpL16-k0 (antibody, human IgG1, kappa)
# heavy: not shown
# light: B1 light
# notes: homodimerized: alteration in both H chains; also called Ho Ab S337_06M
# B23: GpH7-B3 variant T335_07I/GpL16-k0 (antibody, human IgG1, kappa)
# heavy: not shown
# light: B1 light
# notes: homodimerized: alteration in both H chains; also called Ho Ab T335_07I
# B24: GpH7-B3 variant S337_15Y/GpL16-k0 (antibody, human IgG1, kappa)
# heavy: not shown
# light: B1 light
# notes: homodimerized: alteration in both H chains; also called Ho Ab S337_15Y
# B25: GpH7-B3 variant K334_02A/GpL16-k0 (antibody, human IgG1, kappa)
# heavy: not shown
# light: B1 light
# notes: homodimerized: alteration in both H chains; also called Ho Ab K334_02A
# B26: GpH7-B3 variant K326_20W/GpL16-k0 (antibody, human IgG1, kappa)
# heavy: not shown
# light: B1 light
# notes: homodimerized: alteration in both H chains; also called Ho Ab K326_20W
# B27: GpH7-B3 variant S337_03V/GpL16-k0 (antibody, human IgG1, kappa)
# heavy: not shown
# light: B1 light
# notes: homodimerized: alteration in both H chains; also called Ho Ab S337_03V
# B28: GpH7-B3 variant S239_10E/GpL16-k0 (antibody, human IgG1, kappa)
# heavy: not shown
# light: B1 light
# notes: homodimerized: alteration in both H chains; also called Ho Ab S239_10E
# B29: GpH7-B3 variant K326_08L/GpL16-k0 (antibody, human IgG1, kappa)
# heavy: not shown
# light: B1 light
# notes: homodimerized: alteration in both H chains; also called Ho Ab K326_08L
# B30: GpH7-B3 variant L328_14T/GpL16-k0 (antibody, human IgG1, kappa)
# heavy: not shown
# light: B1 light
# notes: homodimerized: alteration in both H chains; also called Ho Ab L328_14T
# B31: GpH7-B3 variant S337_20W/GpL16-k0 (antibody, human IgG1, kappa)
# heavy: not shown
# light: B1 light
# notes: homodimerized: alteration in both H chains; also called Ho Ab S337_20W
# B32: GpH7-B3 variant K334_13S/GpL16-k0 (antibody, human IgG1, kappa)
# heavy: not shown
# light: B1 light
# notes: homodimerized: alteration in both H chains; also called Ho Ab K334_13S
# B33: GpH7-B3 variant S337_19Q/GpL16-k0 (antibody, human IgG1, kappa)
# heavy: not shown
# light: B1 light
# notes: homodimerized: alteration in both H chains; also called Ho Ab S337_19Q
# B34: GpH7-B3 variant K334_04F/GpL16-k0 (antibody, human IgG1, kappa)
# heavy: not shown
# light: B1 light
# notes: homodimerized: alteration in both H chains; also called Ho Ab K334_04F
# B35: GpH7-B3 variant P331_04F/GpL16-k0 (antibody, human IgG1, kappa)
# heavy: not shown
# light: B1 light
# notes: homodimerized: alteration in both H chains; also called Ho Ab P331_04F
# B36: GpH7-B3 variant T335_05P/GpL16-k0 (antibody, human IgG1, kappa)
# heavy: not shown
# light: B1 light
# notes: homodimerized: alteration in both H chains; also called Ho Ab T335_05P
# B37: GpH7-B3 variant T335_02A/GpL16-k0 (antibody, human IgG1, kappa)
# heavy: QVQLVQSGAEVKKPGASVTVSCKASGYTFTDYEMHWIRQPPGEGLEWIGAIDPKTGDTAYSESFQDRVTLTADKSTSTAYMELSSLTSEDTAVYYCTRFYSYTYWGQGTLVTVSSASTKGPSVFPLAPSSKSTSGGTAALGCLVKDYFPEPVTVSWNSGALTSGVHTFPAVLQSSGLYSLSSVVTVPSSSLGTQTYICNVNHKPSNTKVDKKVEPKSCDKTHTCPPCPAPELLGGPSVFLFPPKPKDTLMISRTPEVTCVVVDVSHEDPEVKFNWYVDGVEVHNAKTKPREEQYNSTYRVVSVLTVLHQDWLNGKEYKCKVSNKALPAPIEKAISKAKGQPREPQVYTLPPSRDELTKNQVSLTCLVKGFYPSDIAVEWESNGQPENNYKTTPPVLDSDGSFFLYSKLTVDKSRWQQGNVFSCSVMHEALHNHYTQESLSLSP
# light: B1 light
# notes: homodimerized: alteration in both H chains; also called Ho Ab T335_02A
# B38: GpH7-B3 variant S298_08L/GpL16-k0 (antibody, human IgG1, kappa)
# heavy: not shown
# light: B1 light
# notes: homodimerized: alteration in both H chains; also called Ho Ab S298_08L
# B39: GpH7-A5/GpH7-B3 variant A327_09D/GpL16-k0 (antibody, human IgG1, kappa)
# heavy 1: not shown
# heavy 2: not shown
# light: B1 light
# notes: heterodimerized: alteration in one H chain only; also called He Ab A327_09D
# B40: GpH7-B3 variant S239_08L/GpL16-k0 (antibody, human IgG1, kappa)
# heavy: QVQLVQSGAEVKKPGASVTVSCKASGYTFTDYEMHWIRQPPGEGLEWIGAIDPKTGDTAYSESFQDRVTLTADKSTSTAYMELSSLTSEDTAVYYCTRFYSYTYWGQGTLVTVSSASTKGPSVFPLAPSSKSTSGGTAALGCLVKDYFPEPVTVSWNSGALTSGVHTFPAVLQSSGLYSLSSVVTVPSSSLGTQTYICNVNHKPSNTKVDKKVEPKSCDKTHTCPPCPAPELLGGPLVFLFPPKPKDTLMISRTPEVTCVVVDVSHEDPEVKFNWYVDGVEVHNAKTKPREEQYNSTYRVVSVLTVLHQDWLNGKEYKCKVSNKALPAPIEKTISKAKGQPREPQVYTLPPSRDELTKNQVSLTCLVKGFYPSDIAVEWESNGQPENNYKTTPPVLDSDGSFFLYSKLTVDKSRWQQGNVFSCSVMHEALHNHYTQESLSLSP
# light: B1 light
# notes: homodimerized: alteration in both H chains; also called Ho Ab S239_08L
# B41: GpH7-B3 variant S239_18N/GpL16-k0 (antibody, human IgG1, kappa)
# heavy: not shown
# light: B1 light
# notes: homodimerized: alteration in both H chains; also called Ho Ab S239_18N
# B42: GpH7-A5/GpH7-B3 variant A327_10E/GpL16-k0 (antibody, human IgG1, kappa)
# heavy 1: not shown
# heavy 2: not shown
# light: B1 light
# notes: heterodimerized: alteration in one H chain only; also called He Ab A327_10E
# B43: GpH7-B3 variant L235_20W/GpL16-k0 (antibody, human IgG1, kappa)
# heavy: not shown
# light: B1 light
# notes: homodimerized: alteration in both H chains; also called Ho Ab L235_20W
# B44: GpH7-B3 variant K334_19Q/GpL16-k0 (antibody, human IgG1, kappa)
# heavy: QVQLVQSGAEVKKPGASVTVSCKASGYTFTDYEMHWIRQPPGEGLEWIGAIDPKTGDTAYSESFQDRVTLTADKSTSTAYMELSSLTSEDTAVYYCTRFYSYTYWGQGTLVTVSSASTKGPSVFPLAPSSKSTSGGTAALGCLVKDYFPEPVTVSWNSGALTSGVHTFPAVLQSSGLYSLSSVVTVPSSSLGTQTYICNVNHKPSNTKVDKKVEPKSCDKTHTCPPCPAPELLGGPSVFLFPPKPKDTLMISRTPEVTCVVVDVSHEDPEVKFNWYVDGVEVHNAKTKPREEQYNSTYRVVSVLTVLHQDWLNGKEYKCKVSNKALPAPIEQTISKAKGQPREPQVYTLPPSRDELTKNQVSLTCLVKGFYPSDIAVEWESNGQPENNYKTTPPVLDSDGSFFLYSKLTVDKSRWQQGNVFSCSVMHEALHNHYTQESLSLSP
# light: B1 light
# notes: homodimerized: alteration in both H chains; also called Ho Ab K334_19Q
# B45: GpH7-B3 variant S324_06M/GpL16-k0 (antibody, human IgG1, kappa)
# heavy: not shown
# light: B1 light
# notes: homodimerized: alteration in both H chains; also called Ho Ab S324_06M
# B46: GpH7-B3 variant S337_09D/GpL16-k0 (antibody, human IgG1, kappa)
# heavy: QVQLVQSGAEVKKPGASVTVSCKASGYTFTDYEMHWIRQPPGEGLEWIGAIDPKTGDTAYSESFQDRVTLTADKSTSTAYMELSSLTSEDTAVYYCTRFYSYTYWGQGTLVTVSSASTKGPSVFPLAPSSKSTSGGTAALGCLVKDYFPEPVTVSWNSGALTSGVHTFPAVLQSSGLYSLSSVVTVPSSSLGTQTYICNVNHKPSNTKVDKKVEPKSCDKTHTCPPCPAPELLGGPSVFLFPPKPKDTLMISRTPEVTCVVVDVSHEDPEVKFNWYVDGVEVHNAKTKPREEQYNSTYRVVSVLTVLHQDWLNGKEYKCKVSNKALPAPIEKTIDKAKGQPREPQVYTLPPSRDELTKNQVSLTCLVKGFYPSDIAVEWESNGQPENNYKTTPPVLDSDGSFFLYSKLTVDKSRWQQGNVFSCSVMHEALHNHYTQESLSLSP
# light: B1 light
# notes: homodimerized: alteration in both H chains; also called Ho Ab S337_09D
# B47: GpH7-B3 variant P331_20W/GpL16-k0 (antibody, human IgG1, kappa)
# heavy: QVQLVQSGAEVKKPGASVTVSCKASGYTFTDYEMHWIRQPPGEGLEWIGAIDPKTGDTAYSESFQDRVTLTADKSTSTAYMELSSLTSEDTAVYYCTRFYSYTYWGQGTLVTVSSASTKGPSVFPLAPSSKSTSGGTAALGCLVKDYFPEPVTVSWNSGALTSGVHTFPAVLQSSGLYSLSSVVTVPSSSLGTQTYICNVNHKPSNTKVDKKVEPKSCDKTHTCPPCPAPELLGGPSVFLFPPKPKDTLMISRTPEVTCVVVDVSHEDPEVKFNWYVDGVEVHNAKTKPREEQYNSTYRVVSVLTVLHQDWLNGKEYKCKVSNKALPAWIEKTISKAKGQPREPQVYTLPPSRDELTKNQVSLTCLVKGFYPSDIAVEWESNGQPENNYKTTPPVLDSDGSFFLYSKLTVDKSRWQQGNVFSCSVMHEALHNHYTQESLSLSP
# light: B1 light
# notes: homodimerized: alteration in both H chains; also called Ho Ab P331_20W
# B48: GpH7-B3 variant L328_13S/GpL16-k0 (antibody, human IgG1, kappa)
# heavy: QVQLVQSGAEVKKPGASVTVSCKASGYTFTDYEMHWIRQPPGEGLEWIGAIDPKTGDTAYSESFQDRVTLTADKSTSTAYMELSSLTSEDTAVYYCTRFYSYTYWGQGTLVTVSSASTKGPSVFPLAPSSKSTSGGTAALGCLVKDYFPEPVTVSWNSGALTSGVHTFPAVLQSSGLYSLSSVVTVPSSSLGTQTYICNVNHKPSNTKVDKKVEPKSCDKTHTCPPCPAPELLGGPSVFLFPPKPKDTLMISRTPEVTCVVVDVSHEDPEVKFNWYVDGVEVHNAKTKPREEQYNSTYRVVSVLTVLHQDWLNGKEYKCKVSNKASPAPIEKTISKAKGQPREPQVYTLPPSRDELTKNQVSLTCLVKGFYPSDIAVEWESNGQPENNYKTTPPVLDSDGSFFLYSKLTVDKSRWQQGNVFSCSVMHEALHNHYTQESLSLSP
# light: B1 light
# notes: homodimerized: alteration in both H chains; also called Ho Ab L328_13S
# B49: GpH7-B3 variant S267_09D/GpL16-k0 (antibody, human IgG1, kappa)
# heavy: not shown
# light: B1 light
# notes: homodimerized: alteration in both H chains; also called Ho Ab S267_09D
# B50: GpH7-B3 variant S267_06M/GpL16-k0 (antibody, human IgG1, kappa)
# heavy: not shown
# light: B1 light
# notes: homodimerized: alteration in both H chains; also called Ho Ab S267_06M
# Key:
# [1] = target: T1, FcγRIIa R extracellular domain with …; test: SPR (Biacore), relative FcγRIIa R binding, GpH7-B3/GpL16-k0 = 100
# Method: Analysis of interaction between objective antibody and the FcγR was carried out using Biacore T100 (GE Healthcare). HBS-EP+ (GE Healthcare) was used as the running buffer, and the measurement temperature was set to 25° C. Chips produced by immobilizing the antigen peptide by the amine coupling method to a Series S Sencor Chip CM5 (GE Healthcare), or alternatively, chips produced by allowing preliminarily biotinylated antigen peptides to interact with and immobilize onto a Series S Sensor Chip SA (certified) (GE Healthcare) were used. Antibodies of interest were captured onto an antigen peptide-immobilized chip, and allowed to interact to each FcγR diluted with running buffer. To regenerate and repeatedly use the chip, the antibodies captured on the chip were washed off by reacting 10 mM glycine-HCl, pH 1.5.
# [2] = target: T1, FcγRIIa R extracellular domain with …; test: SPR (Biacore), relative FcγRIIa R binding, GpH7-A5/GpH7-B3/GpL16-k0 = 100
Binder,Ho/Con_2aR [1],He/Con_2aR [2]
B1,133 % of control,–
B2,–,105 % of control
B3,146 % of control,–
B4,109 % of control,–
B5,115 % of control,–
B6,110 % of control,–
B7,–,109 % of control
B8,102 % of control,–
B9,102 % of control,–
B10,100 % of control,–
B11,102 % of control,–
B12,106 % of control,–
B13,103 % of control,–
B14,103 % of control,–
B15,134 % of control,–
B16,107 % of control,–
B17,116 % of control,–
B18,105 % of control,–
B19,110 % of control,–
B20,105 % of control,–
B21,102 % of control,–
B22,101 % of control,–
B23,107 % of control,–
B24,100 % of control,–
B25,100 % of control,–

Binder,Ho/Con_2aR [1],He/Con_2aR [2]
B26,120 % of control,–
B27,102 % of control,–
B28,122 % of control,–
B29,131 % of control,–
B30,118 % of control,–
B31,105 % of control,–
B32,106 % of control,–
B33,102 % of control,–
B34,110 % of control,–
B35,106 % of control,–
B36,104 % of control,–
B37,102 % of control,–
B38,101 % of control,–
B39,–,124 % of control
B40,106 % of control,–
B41,103 % of control,–
B42,–,110 % of control
B43,114 % of control,–
B44,108 % of control,–
B45,118 % of control,–
B46,114 % of control,–
B47,102 % of control,–
B48,108 % of control,–
B49,167 % of control,–
B50,102 % of control,–
